Data published in US20160244529A1 (ROTTAPHARM BIOTECH S R L, published 2016).
Values joined by “and” are separate entries in the source; they are usually repeats but may differ in a detail not shown here. Equal values may be shown once.

T1: human Ig1,2 TrkA (recombinant D4-D5 domain of human TrkA receptor) (human, UniProt P04629 191-392)
T1 construct: also called hTrkA Ig1,2; TrkA Ig1,2
T1 chain: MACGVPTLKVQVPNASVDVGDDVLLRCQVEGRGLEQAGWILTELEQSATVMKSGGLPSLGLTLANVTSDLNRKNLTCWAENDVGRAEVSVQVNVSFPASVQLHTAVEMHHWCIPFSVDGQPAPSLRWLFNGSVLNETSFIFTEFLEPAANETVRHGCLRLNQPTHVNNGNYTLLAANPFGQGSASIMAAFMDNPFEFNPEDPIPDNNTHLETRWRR

T2: human p75 immunoadhesin (human; Camelus dromedarius, UniProt P08138 29-250)
T2 construct: extracellular domain; also called hp75-Fc; p75NTR immunoadhesin; not shown: Fc portion (immunoglobulin heavy chain constant region) of IgG2a camel antibody (Camelus dromedarius)
T2 sequence (looked up): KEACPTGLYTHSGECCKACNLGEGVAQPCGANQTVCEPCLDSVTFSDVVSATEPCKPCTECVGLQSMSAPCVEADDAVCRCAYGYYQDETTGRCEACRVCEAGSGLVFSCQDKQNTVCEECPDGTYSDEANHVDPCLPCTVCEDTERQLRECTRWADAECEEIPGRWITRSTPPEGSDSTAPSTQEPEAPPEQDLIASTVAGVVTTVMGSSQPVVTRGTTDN


Columns and labels:
[1] = molecular target: T1, human Ig1,2 TrkA (recombinant D4-D5 …); experiment: SPR (Biacore X-100); scFv immobilised on CM5 chip, human Ig1,2 TrkA injected
Description: (§1) The antibodies were also shown to be specific for hTrkA and mTrkA by relative binding to the BIACore sensor chips coated with the appropriate antigen. Antibodies were immobilized by ammine coupling to Biosensor CM5 sensorchips (Pharmacia) according to the manufacturers instructions. Anti-TrkA scFv proteins were diluted at 20-50 μg/ml in suitable pre-concentration buffer (at least 2 pH unit below the pI of the scFv in order to get a net positive charge), chosen among the Acetate buffers. The scFvs were immobilized at 100 RU to get a low density immobilization. As binder, the recombinant protein consisting of D4-D5 domain of human and murine TrkA receptor (hTrkA Ig1,2 and mTrkA Ig1,2 respectively) were injected over the immobilized scFv with a contact time of 60 seconds and with a dissociation time of 400 seconds and the assay workflow placed 5 serial dilutions of the TrkA Ig1,2 (starting in the micromolar range and diluting 1:2 each time). The regeneration condition were mild (contact time 30 seconds, 10 mM Glycine pH2). On the basis of the resulting sensorgrams, the concentrations of TrkA Ig1,2 were adjusted to optimize, contact time, dissociation time and regeneration. Data were analysed by Bioevaluation Software (see results on Table II and Table III). The quality of the data fitting were checked by the value of Chi² and of the U-value.
(§2) We have carried out surface plasmon resonance (SPR) analyses to determine the binding kinetics of a panel of isolated anti-TrkA scFvs (SEQ ID NOs: 1, 2, 3, 4, 5, 6, 7, 8, 9, 10, 11, 12, 13, 14, 15 and 16). The scFvs were immobilized on a CM5 chip followed by injections at various concentration of human and murine Ig 1,2 TrkA (SEQ ID NO: 78) and mouse Ig1,2 TrkA (SEQ ID NO: 79).

[2] = molecular target: T3, mouse Ig1,2 TrkA (recombinant D4-D5 domain of murine TrkA receptor) (mouse, UniProt Q3UFB7 193-413); experiment: SPR (Biacore X-100); scFv immobilised on CM5 chip, mouse Ig1,2 TrkA injected
T3 construct: also called mTrkA Ig1,2
Description: as §1, §2

[3] = molecular target: T4, human TrkA receptor (native, on TF-1 cells) (human, UniProt P04629 33-796); experiment: chip-based flow cytometry (Agilent Bioanalyzer 2100) on TF-1 cells expressing human TrkA; scFv at 5 µg/ml per paragraph 159
T4 construct: also called TF1 expressing TrkA receptor; TF-1 cell line expressing human TrkA receptor
Description: FIG. 5. FACS analysis performed with Bioanalyzer 2100. A cell fluid chip-based fluorescent cytometric assay that runs on Bioanalyzer 2100 (Agilent) for fast characterization of small population cell phenotypes was assessed. The assay determines the expression of specific cell surface markers. In this experiment, the specificity of scFvs on TF-1 cell line expressing human TrkA receptor was assessed. Six samples can be analyzed on each chip in one automated process. Results were in good agreement with conventional flow cytometry in quantisation.
10⁶ cells/sample=tot: 6×10⁶ cells are first centrifuged at 350 g for 5 min at room temperature (RT) and wash with 12 ml of Staining Buffer (SB) at RT. The pellet was resuspended in 3 ml of SB at 4° C. and aliquot 0.5 ml of suspension in 1.5 ml conical tubes. Cells were centrifuged again at 350 g for 5 min at 4° C. and the pellet was resuspended in 1 ml HBSS at 4° C. 125 μl 16% p-formaldehyde (final conc 1.7%) was added into each tube and then the sample was incubated for 10 min at 4° C. on tube rotator. After 10 minutes, 75 μl of 10% detergent solution-Tween 20 (final conc 0.6%) was added and the samples were then incubated for 10 min at 4° C. on tube rotator. Samples were then washed once with FACS Buffer (0.8 ml/sample) at 4° C. and then centrifuged at 350 g for 5 min at 4° C. Cells were resuspended with 80 μl/sample of FACS Buffer. 20 μl of a 5× primary antibody solution were added (final concentration of scFvs is 5 μg/ml). After incubation for 1 hour at 4° C. on tube rotator samples were washed with FACS Buffer (0.5 ml/sample) at 4° C. and then centrifuged 5 min at 350 g at 4° C. Cells were resuspended with 80 μl/sample of FACS Buffer. 20 μl of a 5× secondary antibody solution were added. Final concentration of mouse anti-V5 antibody is 0.20 μg/ml. The samples were incubated for 1 hour at 4° C. on tube rotator. After incubation for 1 hour at 4° C. on tube rotator samples were washed with FACS Buffer (0.5 ml/sample) at 4° C. and then centrifuged 5 min at 350 g at 4° C. Cells were resuspended with 80 μl/sample of FACS Buffer. 20 μl of a 5× tertiary antibody solution were added. Final concentration of anti-mouse IgG-Cy5 is 4 μg/ml (1:250 diluted). The samples were incubated for 1 hour at 4° C. on tube rotator.

human TrkB immunoadhesin = molecular target: T5, human TrkB immunoadhesin (human; Camelus dromedarius, UniProt Q16620 32-430); experiment: specificity ELISA, antigens coated at 2 µg/mL, scFv at 50 ug/mL (upper panel) and 5 ug/mL (lower panel), OD 450 nm
T5 construct: extracellular domain; also called hTrkB-Fc; TrkB immunoadhesins; not shown: Fc portion (immunoglobulin heavy chain constant region) of IgG2a camel antibody (Camelus dromedarius)
Description: (§3) FIG. 3. Specificity ELISA of isolated anti-TrkA scFvs versus human TrkA immunoadhesin (hTrkA-Fc), human TrkB immunoadhesins (hTrkB-Fc), human TrkC immunoadhesins (hTrkC-Fc) and human p75 immunoadhesins (hp75-Fc). Human antigens were coated at 2 μg/mL. Anti-TrkA scFvs were used at 50 μg/mL (upper panel) and/or 5 μg/mL (lower panel). The mean absorbance at 450 nm of the experiments performed in duplicate wells is shown with SD indicated by the bars.

human TrkC immunoadhesin = molecular target: T6, human TrkC immunoadhesin (human; Camelus dromedarius, UniProt Q16288 32-429); experiment: as above
T6 construct: extracellular domain; also called hTrkC-Fc; TrkC immunoadhesins; not shown: Fc portion (immunoglobulin heavy chain constant region) of IgG2a camel antibody (Camelus dromedarius)
Description: as §3

human p75 immunoadhesin = molecular target: T2, human p75 immunoadhesin; experiment: as above
Description: as §3

[4] = molecular target: T4, human TrkA receptor (native, on TF-1 …); experiment: cell-based or functional assay
[5] = molecular target: T1, human Ig1,2 TrkA (recombinant D4-D5 …); experiment: SPR (Biacore X-100) kinetic analysis
[6] = molecular target: T3, mouse Ig1,2 TrkA (recombinant D4-D5 …); experiment: SPR (Biacore X-100) kinetic analysis

T4 sequence (P04629 33-796 limits assumed): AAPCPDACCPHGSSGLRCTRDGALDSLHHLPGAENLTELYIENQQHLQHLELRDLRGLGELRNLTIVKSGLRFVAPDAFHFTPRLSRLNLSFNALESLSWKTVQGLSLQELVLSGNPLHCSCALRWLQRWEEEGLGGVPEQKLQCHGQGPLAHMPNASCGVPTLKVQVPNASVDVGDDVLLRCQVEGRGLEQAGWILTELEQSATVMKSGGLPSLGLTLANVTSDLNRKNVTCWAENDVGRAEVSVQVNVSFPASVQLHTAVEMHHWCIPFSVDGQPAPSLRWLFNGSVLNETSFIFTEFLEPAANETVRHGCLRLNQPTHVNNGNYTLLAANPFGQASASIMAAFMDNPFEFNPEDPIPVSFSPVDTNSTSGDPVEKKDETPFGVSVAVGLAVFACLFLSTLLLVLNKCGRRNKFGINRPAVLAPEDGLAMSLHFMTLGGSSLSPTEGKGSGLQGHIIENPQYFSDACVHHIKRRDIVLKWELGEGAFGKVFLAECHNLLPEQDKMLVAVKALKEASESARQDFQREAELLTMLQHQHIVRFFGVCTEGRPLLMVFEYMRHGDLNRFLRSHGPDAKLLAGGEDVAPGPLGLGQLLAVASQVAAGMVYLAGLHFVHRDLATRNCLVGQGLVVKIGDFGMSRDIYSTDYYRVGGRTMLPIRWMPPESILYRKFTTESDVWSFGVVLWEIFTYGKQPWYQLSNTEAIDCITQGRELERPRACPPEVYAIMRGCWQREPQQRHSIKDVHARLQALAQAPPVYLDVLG
T3 sequence (Q3UFB7 other isoform, or with tags, fused parts or gaps limits assumed): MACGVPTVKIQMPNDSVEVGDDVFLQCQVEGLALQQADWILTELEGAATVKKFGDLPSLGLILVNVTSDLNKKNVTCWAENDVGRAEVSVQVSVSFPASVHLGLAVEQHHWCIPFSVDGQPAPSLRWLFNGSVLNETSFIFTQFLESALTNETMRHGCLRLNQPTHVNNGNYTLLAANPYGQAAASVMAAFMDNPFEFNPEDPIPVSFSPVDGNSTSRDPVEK
T5 sequence (Q16620 32-430): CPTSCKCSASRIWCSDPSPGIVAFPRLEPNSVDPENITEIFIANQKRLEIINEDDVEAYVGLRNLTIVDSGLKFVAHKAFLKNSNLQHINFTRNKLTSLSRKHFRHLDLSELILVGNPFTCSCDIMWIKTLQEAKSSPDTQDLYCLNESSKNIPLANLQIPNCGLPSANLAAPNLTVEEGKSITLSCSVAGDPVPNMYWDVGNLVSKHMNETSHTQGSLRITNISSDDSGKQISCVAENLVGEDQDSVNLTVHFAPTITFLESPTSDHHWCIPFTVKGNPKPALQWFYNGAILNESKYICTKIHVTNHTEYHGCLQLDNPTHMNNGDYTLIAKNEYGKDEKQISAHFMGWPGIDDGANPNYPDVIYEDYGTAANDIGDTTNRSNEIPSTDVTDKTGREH

Binder | Kd [1] | koff [1] | kon [1] | Kd [2] | koff [2] | kon [2] | binding result [3] | binding result (human TrkB immunoadhesin) | binding result (human TrkC immunoadhesin) | binding result (human p75 immunoadhesin) | IC50 of inhibition of NGF-mediated TF1 cell proliferation (MTT assay) [4] | Kd [5] | koff [5] | kon [5] | Kd [6] | koff [6] | kon [6]
anti-TrkA scFv CRB0072 (scFv, From hSPLINT_09 selection) scFv: DIQMTQSPISLSATVGDRVTITCRASQSIGRYLNWYQQKPGKAPKLLIYGASSLESGVPSRFSGSGSGTVFTLTISGLQPEDFATYCCQQSHSTAWTFGQGTKVEIKSGGSTSGSGKPGSGEGSSGTEVQLVETGGGLVQPGSSLRLSCATSGFTFINYGVHWVRQPPGKGLEWVASIWYEGSNEKYADSVKGRFTISRDNSRYTLHLQLNSLRAEDTADYYCVRDRGTGDYRNSRFYYGMDVWGQGTTVTVSS | 2.04 nM | 7.48e-06 s⁻¹ | 3680 M⁻¹ s⁻¹ | 17 nM | 4.93e-05 s⁻¹ | 2910 M⁻¹ s⁻¹ | binds | no binding (tested: 50 ug/mL) | no binding (tested: 50 ug/mL) | no binding (tested: 50 ug/mL) | – | – | – | – | – | – | –
CRB0089_IgG4 (antibody, V domains shown, Whole human IgG4 made in CHO-S cells; also called mAb CRB0089_IgG4; anti-TrkA CRB0089_IgG4) VH: QVQLQESGPGLVKPSQTLSLTCAISGDSVSSNSAAWNWIRQSPSRGLEWLGRTFHRSRWYNEYPVSVRSRITINPDTSNNQFTLQLNSVTPDDTAVYYCARAPVAGLTFDIWGQGTMVTVSS VL: QTVVTQEPSVSGAPGQRVTISCTGSSSIIGAGYEVHWYQHLPGTAPKLLIYDSINRPSGVPDRFSGSKSGTSASLAITGLQAEDEADYYCQSSAIFGGGTKLTVL | – | – | – | – | – | – | – | – | – | – | ~43 nM and ~40 nM | 16.1 nM | 0.000103 s⁻¹ | 6420 M⁻¹ s⁻¹ | 27.6 nM | 0.000136 s⁻¹ | 4950 M⁻¹ s⁻¹
anti-TrkA scFv CRB0088 (scFv, From hSPLINT_09 selection) scFv: QPVLTQSPPASASLGASVKLTCTLSSGHSSYAIAWHQQQPEKGPRYLMKVNSDGSHNKGDGIPDRFSGSRSGAERYLTISSLHSEDEADYYCQTWGAGGVVFGGGTKLTVLSGGSTSGSGKPGSGEGSSGTEVQLLESGGGLVQPGGSLRLSCAASGFTFSDHYMDWVRQAPGKGLEWVGRIRNKANSYTTEYAASVKGRFTISRDDSKKTLYLQMTSLKTDDTALYYCARDLGASDAFDLWGQGTMVTVSS | 1.16 nM | 3.2e-06 s⁻¹ | 2760 M⁻¹ s⁻¹ | 38.5 nM | 0.000131 s⁻¹ | 3410 M⁻¹ s⁻¹ | binds | no binding (tested: 50 ug/mL) | no binding (tested: 50 ug/mL) | no binding (tested: 50 ug/mL) | – | – | – | – | – | – | –
